# Assay results published in IntAct's records for PubMed 35512704.
# B1: Speckle-type POZ protein (Homo sapiens), O43791 (parent)
# chain: MSRVPSPPPPAEMSSGPVAESWCYTQIKVVKFSYMWTINNFSFCREEMGEVIKSSTFSSGANDKLKWCLRVNPKGLDEESKDYLSLYLLLVSCPKSEVRAKFKFSILNAKGEETKAMESQRAYRFVQGKDWGFKKFIRRDFLLDEANGLLPDDKLTLFCEVSVVQDSVNISGQNTMNMVKVPECRLADELGGLWENSRFTDCCLCVAGQEFQAHKAILAARSPVFSAMFEHEMEESKKNRVEINDVEPEVFKEMMCFIYTGKAPNLDKMADDLLAAADKYALERLKVMCEDALCSNLSVENAAEILILADLHSADQLKTQAVDFINYHASDVLETSGWKSMVVSHPHLVAEAYRSLASAQCPFLGPPRKRLKQS
# Variants of: B1
# Details: with mk06_human MAPK6, Q16659
row,effect of a mutation on the interaction,Variant
1,with no effect,MSRVPSPPPPAEMSSGPVAESWCYTQIKVVKFSYMWTINNFSFCREEMGEVIKSSTFSSGANDKLKWCLRVNPKGLDEESKDYLSLCLLLVSCPKSEVRAKFKFSILNAKGEETKAMESQRAYRFVQGKDWGFKKFIRRDFLLDEANGLLPDDKLTLFCEVSVVQDSVNISGQNTMNMVKVPECRLADELGGLWENSRFTDCCLCVAGQEFQAHKAILAARSPVFSAMFEHEMEESKKNRVEINDVEPEVFKEMMCFIYTGKAPNLDKMADDLLAAADKYALERLKVMCEDALCSNLSVENAAEILILADLHSADQLKTQAVDFINYHASDVLETSGWKSMVVSHPHLVAEAYRSLASAQCPFLGPPRKRLKQS [Y87C]

# Variants of: B1
# Details: with sin1_human MAPKAP1, Q9BPZ7
# Chain of sin1_human MAPKAP1, Q9BPZ7 (Q9BPZ7 whole entry): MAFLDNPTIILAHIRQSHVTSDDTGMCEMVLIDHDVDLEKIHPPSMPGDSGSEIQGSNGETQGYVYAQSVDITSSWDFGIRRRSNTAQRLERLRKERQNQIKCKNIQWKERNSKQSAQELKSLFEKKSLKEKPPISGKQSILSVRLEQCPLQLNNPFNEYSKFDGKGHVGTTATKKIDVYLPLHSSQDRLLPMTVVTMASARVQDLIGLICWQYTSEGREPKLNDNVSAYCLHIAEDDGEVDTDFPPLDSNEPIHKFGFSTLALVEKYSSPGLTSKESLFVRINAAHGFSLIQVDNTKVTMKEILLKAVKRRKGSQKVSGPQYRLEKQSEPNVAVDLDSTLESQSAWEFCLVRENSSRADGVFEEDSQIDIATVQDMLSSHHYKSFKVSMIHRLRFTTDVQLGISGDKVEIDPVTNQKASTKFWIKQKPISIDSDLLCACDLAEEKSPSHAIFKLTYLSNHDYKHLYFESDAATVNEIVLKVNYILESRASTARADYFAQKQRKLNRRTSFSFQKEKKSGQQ
row,effect of a mutation on the interaction,Variant
1,with no effect,MSRVPSPPPPAEMSSGPVAESWCYTQIKVVKFSYMWTINNFSFCREEMGEVIKSSTFSSGANDKLKWCLRVNPKGLDEESKDYLSLCLLLVSCPKSEVRAKFKFSILNAKGEETKAMESQRAYRFVQGKDWGFKKFIRRDFLLDEANGLLPDDKLTLFCEVSVVQDSVNISGQNTMNMVKVPECRLADELGGLWENSRFTDCCLCVAGQEFQAHKAILAARSPVFSAMFEHEMEESKKNRVEINDVEPEVFKEMMCFIYTGKAPNLDKMADDLLAAADKYALERLKVMCEDALCSNLSVENAAEILILADLHSADQLKTQAVDFINYHASDVLETSGWKSMVVSHPHLVAEAYRSLASAQCPFLGPPRKRLKQS [Y87C]

# Variants of: B1
# Details: with mcl1_human MCL1, Q07820
# Chain of mcl1_human MCL1, Q07820 (Q07820 whole entry): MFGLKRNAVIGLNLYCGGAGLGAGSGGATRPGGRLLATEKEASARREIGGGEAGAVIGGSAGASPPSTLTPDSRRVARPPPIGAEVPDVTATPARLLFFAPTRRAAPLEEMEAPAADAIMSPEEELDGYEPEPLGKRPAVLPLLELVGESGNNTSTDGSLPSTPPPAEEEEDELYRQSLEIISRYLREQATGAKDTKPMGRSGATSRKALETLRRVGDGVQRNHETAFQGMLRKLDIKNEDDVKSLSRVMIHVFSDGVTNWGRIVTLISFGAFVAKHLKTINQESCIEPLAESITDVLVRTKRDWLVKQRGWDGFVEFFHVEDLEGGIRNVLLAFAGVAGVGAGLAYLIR
row,effect of a mutation on the interaction,Variant
1,with no effect,MSRVPSPPPPAEMSSGPVAESWCYTQIKVVKFSYMWTINNFSFCREEMGEVIKSSTFSSGANDKLKWCLRVNPKGLDEESKDYLSLCLLLVSCPKSEVRAKFKFSILNAKGEETKAMESQRAYRFVQGKDWGFKKFIRRDFLLDEANGLLPDDKLTLFCEVSVVQDSVNISGQNTMNMVKVPECRLADELGGLWENSRFTDCCLCVAGQEFQAHKAILAARSPVFSAMFEHEMEESKKNRVEINDVEPEVFKEMMCFIYTGKAPNLDKMADDLLAAADKYALERLKVMCEDALCSNLSVENAAEILILADLHSADQLKTQAVDFINYHASDVLETSGWKSMVVSHPHLVAEAYRSLASAQCPFLGPPRKRLKQS [Y87C]

# Variants of: B1
# Details: with mdm2_human MDM2, Q00987
# Chain of mdm2_human MDM2, Q00987 (Q00987 whole entry, looked up): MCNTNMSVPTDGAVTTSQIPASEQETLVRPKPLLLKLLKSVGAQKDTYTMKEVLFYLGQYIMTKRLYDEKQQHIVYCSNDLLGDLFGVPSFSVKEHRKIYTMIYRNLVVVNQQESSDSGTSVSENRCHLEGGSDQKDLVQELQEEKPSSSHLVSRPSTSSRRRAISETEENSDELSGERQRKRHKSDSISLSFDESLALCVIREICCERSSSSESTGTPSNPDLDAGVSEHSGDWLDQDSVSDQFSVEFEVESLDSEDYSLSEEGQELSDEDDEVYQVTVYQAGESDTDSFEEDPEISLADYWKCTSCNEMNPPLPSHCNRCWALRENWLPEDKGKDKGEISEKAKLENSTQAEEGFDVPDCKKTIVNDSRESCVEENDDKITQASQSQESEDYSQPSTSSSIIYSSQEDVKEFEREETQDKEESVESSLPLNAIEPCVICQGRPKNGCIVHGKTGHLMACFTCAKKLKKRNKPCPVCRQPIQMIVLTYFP
row,effect of a mutation on the interaction,Variant
1,with no effect,MSRVPSPPPPAEMSSGPVAESWCYTQIKVVKFSYMWTINNFSFCREEMGEVIKSSTFSSGANDKLKWCLRVNPKGLDEESKDYLSLCLLLVSCPKSEVRAKFKFSILNAKGEETKAMESQRAYRFVQGKDWGFKKFIRRDFLLDEANGLLPDDKLTLFCEVSVVQDSVNISGQNTMNMVKVPECRLADELGGLWENSRFTDCCLCVAGQEFQAHKAILAARSPVFSAMFEHEMEESKKNRVEINDVEPEVFKEMMCFIYTGKAPNLDKMADDLLAAADKYALERLKVMCEDALCSNLSVENAAEILILADLHSADQLKTQAVDFINYHASDVLETSGWKSMVVSHPHLVAEAYRSLASAQCPFLGPPRKRLKQS [Y87C]

# Variants of: B1
# Details: with mitf_human MITF
row,effect of a mutation on the interaction,Variant
1,with no effect,MSRVPSPPPPAEMSSGPVAESWCYTQIKVVKFSYMWTINNFSFCREEMGEVIKSSTFSSGANDKLKWCLRVNPKGLDEESKDYLSLCLLLVSCPKSEVRAKFKFSILNAKGEETKAMESQRAYRFVQGKDWGFKKFIRRDFLLDEANGLLPDDKLTLFCEVSVVQDSVNISGQNTMNMVKVPECRLADELGGLWENSRFTDCCLCVAGQEFQAHKAILAARSPVFSAMFEHEMEESKKNRVEINDVEPEVFKEMMCFIYTGKAPNLDKMADDLLAAADKYALERLKVMCEDALCSNLSVENAAEILILADLHSADQLKTQAVDFINYHASDVLETSGWKSMVVSHPHLVAEAYRSLASAQCPFLGPPRKRLKQS [Y87C]

# Variants of: B1
# Details: with mlh1_human MLH1, P40692
row,effect of a mutation on the interaction,Variant
1,with no effect,MSRVPSPPPPAEMSSGPVAESWCYTQIKVVKFSYMWTINNFSFCREEMGEVIKSSTFSSGANDKLKWCLRVNPKGLDEESKDYLSLCLLLVSCPKSEVRAKFKFSILNAKGEETKAMESQRAYRFVQGKDWGFKKFIRRDFLLDEANGLLPDDKLTLFCEVSVVQDSVNISGQNTMNMVKVPECRLADELGGLWENSRFTDCCLCVAGQEFQAHKAILAARSPVFSAMFEHEMEESKKNRVEINDVEPEVFKEMMCFIYTGKAPNLDKMADDLLAAADKYALERLKVMCEDALCSNLSVENAAEILILADLHSADQLKTQAVDFINYHASDVLETSGWKSMVVSHPHLVAEAYRSLASAQCPFLGPPRKRLKQS [Y87C]

# Variants of: B1
# Details: with mtor_human MTOR
row,effect of a mutation on the interaction,Variant
1,with no effect,MSRVPSPPPPAEMSSGPVAESWCYTQIKVVKFSYMWTINNFSFCREEMGEVIKSSTFSSGANDKLKWCLRVNPKGLDEESKDYLSLCLLLVSCPKSEVRAKFKFSILNAKGEETKAMESQRAYRFVQGKDWGFKKFIRRDFLLDEANGLLPDDKLTLFCEVSVVQDSVNISGQNTMNMVKVPECRLADELGGLWENSRFTDCCLCVAGQEFQAHKAILAARSPVFSAMFEHEMEESKKNRVEINDVEPEVFKEMMCFIYTGKAPNLDKMADDLLAAADKYALERLKVMCEDALCSNLSVENAAEILILADLHSADQLKTQAVDFINYHASDVLETSGWKSMVVSHPHLVAEAYRSLASAQCPFLGPPRKRLKQS [Y87C]

# Variants of: B1
# Details: with mybb_human MYBL2, P10244
# Chain of mybb_human MYBL2, P10244 (P10244 whole entry): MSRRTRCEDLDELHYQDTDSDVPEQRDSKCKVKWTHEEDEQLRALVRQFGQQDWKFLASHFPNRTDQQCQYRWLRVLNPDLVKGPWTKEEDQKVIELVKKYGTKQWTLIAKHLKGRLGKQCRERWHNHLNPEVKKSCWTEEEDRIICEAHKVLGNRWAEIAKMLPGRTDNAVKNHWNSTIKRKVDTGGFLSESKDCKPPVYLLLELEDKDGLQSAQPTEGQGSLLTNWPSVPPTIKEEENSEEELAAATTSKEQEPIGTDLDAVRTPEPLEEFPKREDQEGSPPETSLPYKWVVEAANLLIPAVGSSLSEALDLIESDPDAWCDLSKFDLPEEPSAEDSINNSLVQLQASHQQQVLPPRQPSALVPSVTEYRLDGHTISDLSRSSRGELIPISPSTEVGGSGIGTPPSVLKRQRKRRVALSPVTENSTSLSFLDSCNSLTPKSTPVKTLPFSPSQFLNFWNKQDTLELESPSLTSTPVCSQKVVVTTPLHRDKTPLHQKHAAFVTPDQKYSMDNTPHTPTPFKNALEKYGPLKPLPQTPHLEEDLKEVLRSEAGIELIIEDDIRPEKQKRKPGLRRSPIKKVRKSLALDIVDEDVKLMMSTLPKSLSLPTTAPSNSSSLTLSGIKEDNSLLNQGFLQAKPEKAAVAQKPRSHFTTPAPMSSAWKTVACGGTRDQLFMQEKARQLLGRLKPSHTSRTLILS
row,effect of a mutation on the interaction,Variant
1,with no effect,MSRVPSPPPPAEMSSGPVAESWCYTQIKVVKFSYMWTINNFSFCREEMGEVIKSSTFSSGANDKLKWCLRVNPKGLDEESKDYLSLCLLLVSCPKSEVRAKFKFSILNAKGEETKAMESQRAYRFVQGKDWGFKKFIRRDFLLDEANGLLPDDKLTLFCEVSVVQDSVNISGQNTMNMVKVPECRLADELGGLWENSRFTDCCLCVAGQEFQAHKAILAARSPVFSAMFEHEMEESKKNRVEINDVEPEVFKEMMCFIYTGKAPNLDKMADDLLAAADKYALERLKVMCEDALCSNLSVENAAEILILADLHSADQLKTQAVDFINYHASDVLETSGWKSMVVSHPHLVAEAYRSLASAQCPFLGPPRKRLKQS [Y87C]

# Variants of: B1
# Details: with myc_human MYC
row,effect of a mutation on the interaction,Variant
1,with no effect,MSRVPSPPPPAEMSSGPVAESWCYTQIKVVKFSYMWTINNFSFCREEMGEVIKSSTFSSGANDKLKWCLRVNPKGLDEESKDYLSLCLLLVSCPKSEVRAKFKFSILNAKGEETKAMESQRAYRFVQGKDWGFKKFIRRDFLLDEANGLLPDDKLTLFCEVSVVQDSVNISGQNTMNMVKVPECRLADELGGLWENSRFTDCCLCVAGQEFQAHKAILAARSPVFSAMFEHEMEESKKNRVEINDVEPEVFKEMMCFIYTGKAPNLDKMADDLLAAADKYALERLKVMCEDALCSNLSVENAAEILILADLHSADQLKTQAVDFINYHASDVLETSGWKSMVVSHPHLVAEAYRSLASAQCPFLGPPRKRLKQS [Y87C]

# Variants of: B1
# Details: with mycn_human MYCN
row,effect of a mutation on the interaction,Variant
1,with no effect,MSRVPSPPPPAEMSSGPVAESWCYTQIKVVKFSYMWTINNFSFCREEMGEVIKSSTFSSGANDKLKWCLRVNPKGLDEESKDYLSLCLLLVSCPKSEVRAKFKFSILNAKGEETKAMESQRAYRFVQGKDWGFKKFIRRDFLLDEANGLLPDDKLTLFCEVSVVQDSVNISGQNTMNMVKVPECRLADELGGLWENSRFTDCCLCVAGQEFQAHKAILAARSPVFSAMFEHEMEESKKNRVEINDVEPEVFKEMMCFIYTGKAPNLDKMADDLLAAADKYALERLKVMCEDALCSNLSVENAAEILILADLHSADQLKTQAVDFINYHASDVLETSGWKSMVVSHPHLVAEAYRSLASAQCPFLGPPRKRLKQS [Y87C]

# Variants of: B1
# Details: with ncoa3_human NCOA3, Q9Y6Q9
row,effect of a mutation on the interaction,Variant
1,with no effect,MSRVPSPPPPAEMSSGPVAESWCYTQIKVVKFSYMWTINNFSFCREEMGEVIKSSTFSSGANDKLKWCLRVNPKGLDEESKDYLSLCLLLVSCPKSEVRAKFKFSILNAKGEETKAMESQRAYRFVQGKDWGFKKFIRRDFLLDEANGLLPDDKLTLFCEVSVVQDSVNISGQNTMNMVKVPECRLADELGGLWENSRFTDCCLCVAGQEFQAHKAILAARSPVFSAMFEHEMEESKKNRVEINDVEPEVFKEMMCFIYTGKAPNLDKMADDLLAAADKYALERLKVMCEDALCSNLSVENAAEILILADLHSADQLKTQAVDFINYHASDVLETSGWKSMVVSHPHLVAEAYRSLASAQCPFLGPPRKRLKQS [Y87C]

# Variants of: B1
# Details: with merl_human NF2, P35240
row,effect of a mutation on the interaction,Variant
1,with no effect,MSRVPSPPPPAEMSSGPVAESWCYTQIKVVKFSYMWTINNFSFCREEMGEVIKSSTFSSGANDKLKWCLRVNPKGLDEESKDYLSLCLLLVSCPKSEVRAKFKFSILNAKGEETKAMESQRAYRFVQGKDWGFKKFIRRDFLLDEANGLLPDDKLTLFCEVSVVQDSVNISGQNTMNMVKVPECRLADELGGLWENSRFTDCCLCVAGQEFQAHKAILAARSPVFSAMFEHEMEESKKNRVEINDVEPEVFKEMMCFIYTGKAPNLDKMADDLLAAADKYALERLKVMCEDALCSNLSVENAAEILILADLHSADQLKTQAVDFINYHASDVLETSGWKSMVVSHPHLVAEAYRSLASAQCPFLGPPRKRLKQS [Y87C]

# Variants of: B1
# Details: with nfic_human NFIC
row,effect of a mutation on the interaction,Variant
1,with no effect,MSRVPSPPPPAEMSSGPVAESWCYTQIKVVKFSYMWTINNFSFCREEMGEVIKSSTFSSGANDKLKWCLRVNPKGLDEESKDYLSLCLLLVSCPKSEVRAKFKFSILNAKGEETKAMESQRAYRFVQGKDWGFKKFIRRDFLLDEANGLLPDDKLTLFCEVSVVQDSVNISGQNTMNMVKVPECRLADELGGLWENSRFTDCCLCVAGQEFQAHKAILAARSPVFSAMFEHEMEESKKNRVEINDVEPEVFKEMMCFIYTGKAPNLDKMADDLLAAADKYALERLKVMCEDALCSNLSVENAAEILILADLHSADQLKTQAVDFINYHASDVLETSGWKSMVVSHPHLVAEAYRSLASAQCPFLGPPRKRLKQS [Y87C]

# Variants of: B1
# Details: with ikba_human NFKBIA
row,effect of a mutation on the interaction,Variant
1,with no effect,MSRVPSPPPPAEMSSGPVAESWCYTQIKVVKFSYMWTINNFSFCREEMGEVIKSSTFSSGANDKLKWCLRVNPKGLDEESKDYLSLCLLLVSCPKSEVRAKFKFSILNAKGEETKAMESQRAYRFVQGKDWGFKKFIRRDFLLDEANGLLPDDKLTLFCEVSVVQDSVNISGQNTMNMVKVPECRLADELGGLWENSRFTDCCLCVAGQEFQAHKAILAARSPVFSAMFEHEMEESKKNRVEINDVEPEVFKEMMCFIYTGKAPNLDKMADDLLAAADKYALERLKVMCEDALCSNLSVENAAEILILADLHSADQLKTQAVDFINYHASDVLETSGWKSMVVSHPHLVAEAYRSLASAQCPFLGPPRKRLKQS [Y87C]

# Variants of: B1
# Details: with notc2_human NOTCH2, Q04721
# Chain of notc2_human NOTCH2, Q04721 (Q04721 whole entry): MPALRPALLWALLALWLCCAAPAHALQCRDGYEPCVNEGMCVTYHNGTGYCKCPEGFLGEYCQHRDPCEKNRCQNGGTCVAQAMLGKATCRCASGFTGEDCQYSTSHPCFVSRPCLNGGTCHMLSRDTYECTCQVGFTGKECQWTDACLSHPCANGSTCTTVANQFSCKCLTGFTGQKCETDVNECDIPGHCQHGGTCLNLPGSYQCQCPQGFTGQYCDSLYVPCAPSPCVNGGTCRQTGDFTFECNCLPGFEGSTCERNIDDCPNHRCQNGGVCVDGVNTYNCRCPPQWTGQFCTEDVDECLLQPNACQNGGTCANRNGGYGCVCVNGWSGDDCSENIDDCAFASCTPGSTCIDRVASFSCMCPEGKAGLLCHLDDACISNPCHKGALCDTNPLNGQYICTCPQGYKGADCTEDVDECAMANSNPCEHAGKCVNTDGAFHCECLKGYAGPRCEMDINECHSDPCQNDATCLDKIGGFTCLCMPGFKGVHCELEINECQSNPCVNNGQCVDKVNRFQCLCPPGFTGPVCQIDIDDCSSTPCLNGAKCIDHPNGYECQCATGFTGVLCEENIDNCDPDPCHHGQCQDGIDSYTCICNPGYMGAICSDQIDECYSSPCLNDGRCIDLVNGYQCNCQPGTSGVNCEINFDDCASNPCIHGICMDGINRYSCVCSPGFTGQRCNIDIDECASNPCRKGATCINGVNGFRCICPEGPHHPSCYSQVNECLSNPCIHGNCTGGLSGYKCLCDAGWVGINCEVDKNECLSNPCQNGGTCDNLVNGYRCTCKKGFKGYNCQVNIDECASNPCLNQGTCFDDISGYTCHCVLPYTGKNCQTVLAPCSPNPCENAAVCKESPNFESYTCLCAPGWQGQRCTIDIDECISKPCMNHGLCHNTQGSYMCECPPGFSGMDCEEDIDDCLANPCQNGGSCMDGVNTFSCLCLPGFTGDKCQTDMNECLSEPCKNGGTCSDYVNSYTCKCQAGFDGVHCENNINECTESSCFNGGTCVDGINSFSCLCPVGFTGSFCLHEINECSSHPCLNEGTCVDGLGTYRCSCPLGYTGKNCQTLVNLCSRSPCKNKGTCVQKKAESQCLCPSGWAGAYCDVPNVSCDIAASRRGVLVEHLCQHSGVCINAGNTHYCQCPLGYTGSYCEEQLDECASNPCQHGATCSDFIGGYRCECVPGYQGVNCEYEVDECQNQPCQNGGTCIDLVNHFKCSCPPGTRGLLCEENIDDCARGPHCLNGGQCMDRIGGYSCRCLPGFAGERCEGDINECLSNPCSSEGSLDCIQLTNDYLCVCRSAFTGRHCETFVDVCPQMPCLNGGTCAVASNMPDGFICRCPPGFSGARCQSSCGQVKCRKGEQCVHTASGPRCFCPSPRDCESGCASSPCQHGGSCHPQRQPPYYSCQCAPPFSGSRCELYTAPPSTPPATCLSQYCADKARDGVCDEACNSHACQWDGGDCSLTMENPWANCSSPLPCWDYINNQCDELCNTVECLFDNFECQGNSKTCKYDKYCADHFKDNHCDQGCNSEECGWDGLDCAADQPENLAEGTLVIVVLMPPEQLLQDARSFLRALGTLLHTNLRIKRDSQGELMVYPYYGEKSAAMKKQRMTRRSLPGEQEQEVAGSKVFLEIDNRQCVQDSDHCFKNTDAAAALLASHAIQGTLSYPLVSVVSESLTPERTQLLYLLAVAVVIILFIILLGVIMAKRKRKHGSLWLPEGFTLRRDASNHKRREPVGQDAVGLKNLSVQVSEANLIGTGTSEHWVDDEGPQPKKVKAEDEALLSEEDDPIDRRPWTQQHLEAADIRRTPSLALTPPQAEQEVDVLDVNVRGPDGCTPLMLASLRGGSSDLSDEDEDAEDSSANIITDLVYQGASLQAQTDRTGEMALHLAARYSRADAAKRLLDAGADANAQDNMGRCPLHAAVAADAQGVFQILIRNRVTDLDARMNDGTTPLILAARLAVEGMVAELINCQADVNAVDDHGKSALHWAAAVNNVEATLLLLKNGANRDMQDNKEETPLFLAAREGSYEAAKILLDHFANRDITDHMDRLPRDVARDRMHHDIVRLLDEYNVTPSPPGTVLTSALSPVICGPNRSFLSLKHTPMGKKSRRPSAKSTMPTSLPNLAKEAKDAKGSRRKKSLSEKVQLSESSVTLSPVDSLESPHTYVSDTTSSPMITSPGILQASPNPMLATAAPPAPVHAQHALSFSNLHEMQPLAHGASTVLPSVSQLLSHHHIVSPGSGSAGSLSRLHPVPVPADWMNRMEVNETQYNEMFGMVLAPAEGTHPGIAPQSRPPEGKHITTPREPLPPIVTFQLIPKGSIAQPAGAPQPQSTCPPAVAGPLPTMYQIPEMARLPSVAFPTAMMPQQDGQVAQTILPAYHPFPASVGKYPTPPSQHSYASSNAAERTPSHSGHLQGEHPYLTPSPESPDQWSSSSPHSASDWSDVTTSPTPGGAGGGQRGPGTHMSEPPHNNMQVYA
row,effect of a mutation on the interaction,Variant
1,with no effect,MSRVPSPPPPAEMSSGPVAESWCYTQIKVVKFSYMWTINNFSFCREEMGEVIKSSTFSSGANDKLKWCLRVNPKGLDEESKDYLSLCLLLVSCPKSEVRAKFKFSILNAKGEETKAMESQRAYRFVQGKDWGFKKFIRRDFLLDEANGLLPDDKLTLFCEVSVVQDSVNISGQNTMNMVKVPECRLADELGGLWENSRFTDCCLCVAGQEFQAHKAILAARSPVFSAMFEHEMEESKKNRVEINDVEPEVFKEMMCFIYTGKAPNLDKMADDLLAAADKYALERLKVMCEDALCSNLSVENAAEILILADLHSADQLKTQAVDFINYHASDVLETSGWKSMVVSHPHLVAEAYRSLASAQCPFLGPPRKRLKQS [Y87C]
